Assay results: article PMC4868757, “PDIP46 (DNA polymerase δ interacting protein 46) is an activating factor for human DNA polymerase δ” (Oncotarget, 2016)
Blank lines part the entries; values can stand above or below the binder they belong to.

Columns and labels:
[1] = molecular target: DNA polymerase delta (Pol δ4) (Homo sapiens, UniProt P28340); assay: polymerase activity stimulation assay
[2] = molecular target: T1, His-tagged p50 subunit of Pol δ (human, UniProt P49005 1-469); assay: pull-down; GST fusion protein incubated with the test protein in 50 mM Tris-HCl pH 7.8, 1 mM EDTA, 150 mM NaCl, 0.1% NP-40, 0.2 mM PMSF, 1 h at 4°C; captured on glutathione beads, washed 8 times; western blot of the test protein; conditions: both partners purified
T1 construct: p50 subunit of human DNA polymerase δ; Expressed in the PET33b vector; also called his-p50; source: E. coli BL21DE3 (pLysS), purified (Ni-NTA agarose)

[3] = molecular target: T2, Recombinant human DNA polymerase δ holoenzyme (Pol δ4), heterotetramer of p125, p50, p68 and p12 (human, UniProt P28340 1-1107; P49005 1-469; Q15054 1-466; Q9HCU8 1-107); assay: as above; conditions: both partners purified
T2 construct: p125, catalytic subunit of human Pol δ; p50 subunit of human Pol δ; p68 subunit of human Pol δ; p12 subunit of human Pol δ; also called Pol δ heterotetramer; source: insect cells, purified to near homogeneity; copies: + + +

His-tagged PDIP46 = molecular target: T3, His-tagged PDIP46 (human, UniProt Q9BY77 1-421); assay: as above; conditions: both partners purified
T3 construct: PDIP46 (SKAR, POLDIP3), human; Expressed in the pTacTac vector with eight histidine residues added at its N-terminus; also called his-PDIP46; source: E. coli BL21DE3 (pLysS), purified (Ni-NTA agarose); not shown: His8, N-terminal, kept
T3 sequence (looked up): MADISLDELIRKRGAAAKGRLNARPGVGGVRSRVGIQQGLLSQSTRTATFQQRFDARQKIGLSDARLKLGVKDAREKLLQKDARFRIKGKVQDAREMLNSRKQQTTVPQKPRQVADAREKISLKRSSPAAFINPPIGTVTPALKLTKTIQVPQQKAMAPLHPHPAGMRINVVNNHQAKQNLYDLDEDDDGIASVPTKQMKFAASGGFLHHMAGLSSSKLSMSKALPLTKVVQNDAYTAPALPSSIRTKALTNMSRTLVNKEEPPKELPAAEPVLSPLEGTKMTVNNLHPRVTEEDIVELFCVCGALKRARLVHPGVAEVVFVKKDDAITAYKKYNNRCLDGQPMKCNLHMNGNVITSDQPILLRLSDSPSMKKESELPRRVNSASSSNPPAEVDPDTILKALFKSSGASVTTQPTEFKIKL

Human PCNA, recombinant = molecular target: T4, Human PCNA, recombinant (human, UniProt P12004 1-261); assay: as above; conditions: both partners purified
T4 construct: PCNA, human; source: E. coli, purified
T4 sequence (P12004 whole entry): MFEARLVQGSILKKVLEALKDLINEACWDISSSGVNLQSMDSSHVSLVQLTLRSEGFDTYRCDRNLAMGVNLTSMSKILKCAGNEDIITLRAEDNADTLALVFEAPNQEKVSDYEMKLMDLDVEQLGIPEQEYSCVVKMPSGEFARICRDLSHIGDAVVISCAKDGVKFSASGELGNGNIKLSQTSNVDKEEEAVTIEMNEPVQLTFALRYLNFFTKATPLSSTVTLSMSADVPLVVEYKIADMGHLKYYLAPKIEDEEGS

Chain of DNA polymerase delta (Pol δ4) (P28340 whole entry, stated change not applied, chain 1 of 4, the tested form may be a part): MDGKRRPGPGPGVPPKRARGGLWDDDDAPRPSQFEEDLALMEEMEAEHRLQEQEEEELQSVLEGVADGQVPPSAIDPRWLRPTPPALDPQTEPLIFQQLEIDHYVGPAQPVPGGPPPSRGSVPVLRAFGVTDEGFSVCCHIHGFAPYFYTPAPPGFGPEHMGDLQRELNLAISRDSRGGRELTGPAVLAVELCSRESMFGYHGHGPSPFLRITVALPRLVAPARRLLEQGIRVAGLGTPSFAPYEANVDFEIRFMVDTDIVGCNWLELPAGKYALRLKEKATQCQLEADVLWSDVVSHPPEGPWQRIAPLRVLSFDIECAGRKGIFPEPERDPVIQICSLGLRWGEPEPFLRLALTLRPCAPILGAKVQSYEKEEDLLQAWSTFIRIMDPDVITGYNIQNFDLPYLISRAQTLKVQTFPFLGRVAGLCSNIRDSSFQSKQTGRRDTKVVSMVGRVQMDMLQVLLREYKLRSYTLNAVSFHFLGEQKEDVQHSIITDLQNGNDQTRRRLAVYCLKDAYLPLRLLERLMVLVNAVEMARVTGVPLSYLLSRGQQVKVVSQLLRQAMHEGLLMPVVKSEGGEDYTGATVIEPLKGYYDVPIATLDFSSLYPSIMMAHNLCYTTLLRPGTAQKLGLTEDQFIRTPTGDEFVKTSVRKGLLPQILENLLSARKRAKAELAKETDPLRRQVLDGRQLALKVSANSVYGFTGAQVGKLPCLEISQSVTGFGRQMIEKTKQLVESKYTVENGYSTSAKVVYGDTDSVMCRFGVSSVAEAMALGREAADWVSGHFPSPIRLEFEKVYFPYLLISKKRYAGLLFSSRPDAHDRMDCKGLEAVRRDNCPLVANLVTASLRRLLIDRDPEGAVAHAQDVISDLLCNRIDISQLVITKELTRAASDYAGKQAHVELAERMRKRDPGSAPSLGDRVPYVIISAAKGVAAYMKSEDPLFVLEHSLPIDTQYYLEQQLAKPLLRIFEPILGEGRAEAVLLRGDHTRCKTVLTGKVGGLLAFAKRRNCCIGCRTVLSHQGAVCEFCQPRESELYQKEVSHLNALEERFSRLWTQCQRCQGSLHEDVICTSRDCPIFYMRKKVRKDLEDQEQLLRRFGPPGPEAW
Chain of DNA polymerase delta (Pol δ4) (P49005 whole entry, stated change not applied, chain 2 of 4, further chain, the tested form may be a part): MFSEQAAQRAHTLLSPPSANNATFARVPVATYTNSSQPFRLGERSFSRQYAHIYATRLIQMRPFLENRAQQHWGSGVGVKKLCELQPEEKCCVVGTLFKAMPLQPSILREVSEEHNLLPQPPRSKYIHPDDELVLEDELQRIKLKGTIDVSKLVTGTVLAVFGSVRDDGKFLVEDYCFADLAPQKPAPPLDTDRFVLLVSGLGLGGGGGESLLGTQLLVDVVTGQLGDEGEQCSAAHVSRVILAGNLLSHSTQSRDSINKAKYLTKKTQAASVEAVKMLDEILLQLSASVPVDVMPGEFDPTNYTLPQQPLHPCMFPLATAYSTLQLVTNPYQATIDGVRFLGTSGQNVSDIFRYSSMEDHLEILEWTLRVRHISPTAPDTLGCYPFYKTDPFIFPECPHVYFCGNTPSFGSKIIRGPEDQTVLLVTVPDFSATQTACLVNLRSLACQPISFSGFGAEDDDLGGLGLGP
Chain of DNA polymerase delta (Pol δ4) (Q15054 2-466, stated change not applied, chain 3 of 4, further chain): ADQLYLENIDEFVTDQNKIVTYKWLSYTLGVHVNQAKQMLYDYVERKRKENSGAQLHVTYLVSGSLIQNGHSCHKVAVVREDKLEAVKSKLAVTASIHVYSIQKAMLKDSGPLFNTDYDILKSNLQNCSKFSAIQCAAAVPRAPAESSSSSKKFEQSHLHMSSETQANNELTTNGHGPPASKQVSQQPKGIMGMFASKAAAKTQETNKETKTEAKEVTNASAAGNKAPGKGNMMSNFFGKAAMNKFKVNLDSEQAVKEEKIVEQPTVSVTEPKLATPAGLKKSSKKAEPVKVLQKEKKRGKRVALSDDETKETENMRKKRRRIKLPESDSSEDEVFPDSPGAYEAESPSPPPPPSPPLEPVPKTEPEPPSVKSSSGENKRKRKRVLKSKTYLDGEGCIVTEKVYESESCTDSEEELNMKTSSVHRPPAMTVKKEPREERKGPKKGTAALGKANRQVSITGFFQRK
Chain of DNA polymerase delta (Pol δ4) (Q9HCU8 whole entry, stated change not applied, chain 4 of 4, further chain, the tested form may be a part): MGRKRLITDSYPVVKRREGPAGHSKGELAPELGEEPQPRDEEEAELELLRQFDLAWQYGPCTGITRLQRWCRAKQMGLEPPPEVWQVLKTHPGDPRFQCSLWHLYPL
T2 sequence (P28340 whole entry, stated change not applied, chain 1 of 4): as the sequence (P28340 whole entry, stated change not applied, chain 1 of 4, the tested form may be a part) above
T2 sequence (P49005 whole entry, stated change not applied, chain 2 of 4): as the sequence (P49005 whole entry, stated change not applied, chain 2 of 4, further chain, the tested form may be a part) above
T2 sequence (Q15054 whole entry, stated change not applied, chain 3 of 4): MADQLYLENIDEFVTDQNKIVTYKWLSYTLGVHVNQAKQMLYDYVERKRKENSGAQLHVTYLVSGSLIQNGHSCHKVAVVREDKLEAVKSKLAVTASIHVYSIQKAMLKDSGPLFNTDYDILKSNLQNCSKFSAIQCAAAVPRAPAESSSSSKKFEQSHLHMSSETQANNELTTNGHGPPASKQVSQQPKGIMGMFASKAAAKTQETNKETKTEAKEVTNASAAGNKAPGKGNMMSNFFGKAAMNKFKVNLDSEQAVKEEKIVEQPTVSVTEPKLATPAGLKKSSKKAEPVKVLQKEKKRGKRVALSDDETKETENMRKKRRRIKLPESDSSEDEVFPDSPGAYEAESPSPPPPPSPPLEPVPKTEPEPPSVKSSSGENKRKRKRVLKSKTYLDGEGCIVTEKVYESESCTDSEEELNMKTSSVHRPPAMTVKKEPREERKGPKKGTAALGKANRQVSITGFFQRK
T2 sequence (Q9HCU8 whole entry, stated change not applied, chain 4 of 4): as the sequence (Q9HCU8 whole entry, stated change not applied, chain 4 of 4, further chain, the tested form may be a part) above
T1 sequence (P49005 whole entry, stated change not applied, the tested form may be a part): as the sequence (P49005 whole entry, stated change not applied, chain 2 of 4, further chain, the tested form may be a part) above

- Kd [1]: 34 nM
B1: PDIP46 (protein)
chain: ADISLDELIRKRGAAAKGRLNARPGVGGVRSRVGIQQGLLSQSTRTATFQQRFDARQKIGLSDARLKLGVKDAREKLLQKDARFRIKGKVQDAREMLNSRKQQTTVPQKPRQVADAREKISLKRSSPAAFINPPIGTVTPALKLTKTIQVPQQKAMAPLHPHPAGMRINVVNNHQAKQNLYDLDEDDDGIASVPTKQMKFAASGGFLHHMAGLSSSKLSMSKALPLTKVVQNDAYTAPALPSSIRTKALTNMSRTLVNKEEPPKELPAAEPVLSPLEGTKMTVNNLHPRVTEEDIVELFCVCGALKRARLVHPGVAEVVFVKKDDAITAYKKYNNRCLDGQPMKCNLHMNGNVITSDQPILLRLSDSPSMKKESELPRRVNSASSSNPPAEVDPDTILKALFKSSGASVTTQPTEFKIKL

- binding result [2]: binds
- binding result [3]: binds
B2: GST-PDIP46 (DNA polymerase δ interacting protein 46), wild type, full length (natural protein, human, UniProt Q9BY77 1-421, looked up)
chain: MADISLDELIRKRGAAAKGRLNARPGVGGVRSRVGIQQGLLSQSTRTATFQQRFDARQKIGLSDARLKLGVKDAREKLLQKDARFRIKGKVQDAREMLNSRKQQTTVPQKPRQVADAREKISLKRSSPAAFINPPIGTVTPALKLTKTIQVPQQKAMAPLHPHPAGMRINVVNNHQAKQNLYDLDEDDDGIASVPTKQMKFAASGGFLHHMAGLSSSKLSMSKALPLTKVVQNDAYTAPALPSSIRTKALTNMSRTLVNKEEPPKELPAAEPVLSPLEGTKMTVNNLHPRVTEEDIVELFCVCGALKRARLVHPGVAEVVFVKKDDAITAYKKYNNRCLDGQPMKCNLHMNGNVITSDQPILLRLSDSPSMKKESELPRRVNSASSSNPPAEVDPDTILKALFKSSGASVTTQPTEFKIKL
notes: PDIP46 (SKAR, POLDIP3), human, full-length; Subcloned in pGEX-5X-3; The functional rows used untagged PDIP46 (his-Sumo fusion, tags removed by Sumo protease, Mono S), not this GST fusion; also called GST-p46; SKAR; source: E. coli BL21DE3 (pLysS), purified (glutathione beads)

- binding result (His-tagged PDIP46): binds
B3: GST-p50 deletion construct containing residues 252-400 of p50 (domain or fragment, human, UniProt P49005 252-400, looked up)
chain: TQSRDSINKAKYLTKKTQAASVEAVKMLDEILLQLSASVPVDVMPGEFDPTNYTLPQQPLHPCMFPLATAYSTLQLVTNPYQATIDGVRFLGTSGQNVSDIFRYSSMEDHLEILEWTLRVRHISPTAPDTLGCYPFYKTDPFIFPECPH
notes: Subcloned in pGEX-5X-3; source: E. coli BL21DE3 (pLysS), purified (glutathione beads)

- binding result (Human PCNA, recombinant): binds
B4: GST-PDIP46 N-terminal fragment (residues 1-141) (domain or fragment, human, UniProt Q9BY77 1-141, looked up)
chain: MADISLDELIRKRGAAAKGRLNARPGVGGVRSRVGIQQGLLSQSTRTATFQQRFDARQKIGLSDARLKLGVKDAREKLLQKDARFRIKGKVQDAREMLNSRKQQTTVPQKPRQVADAREKISLKRSSPAAFINPPIGTVTP
notes: as for B3
